Results: patent publication US20180155450A1 (Sanofi, published 2018)
Read-outs that look alike come from different tables or passages of the source. Blank lines part the entries; values can stand above or below the binder they belong to.

Key:
[1] = molecular target: T1, recombinant human IL13 (human, UniProt P35225 35-146, limits assumed); test: SPR, BIACORE 3000; antibody captured by anti-human Fc, antigen 0-25 nM as analyte
T1 construct: also called Antigen2
Protocol: Kinetic characterization of purified antibodies was performed using surface plasmon resonance technology on a BIACORE 3000 (GE Healthcare). […] Chip surfaces were regenerated with 10 mM glycine, pH 2.5. Kinetic parameters were analyzed and calculated in the BIAevaluation program package v4.1 using a flow cell without captured antibody as reference.

[2] = molecular target: T2, recombinant human IL4 (human, UniProt P05112 25-153); test: cell-based or functional assay
T2 sequence (looked up): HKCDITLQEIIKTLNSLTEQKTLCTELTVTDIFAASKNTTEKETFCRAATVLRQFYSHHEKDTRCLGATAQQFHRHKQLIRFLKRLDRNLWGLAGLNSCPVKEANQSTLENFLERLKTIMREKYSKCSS

[3] = molecular target: T2, recombinant human IL4; test: SPR (Biacore 3000), antibody captured, antigen as analyte
Protocol: (§1) Kinetic binding analysis by Biacore was performed as follows. Surface plasmon resonance technology on a Biacore 3000 (GE Healthcare) was used for detailed kinetic characterization of purified antibodies. […] Chip surfaces were regenerated with 10 mM glycine pH 2.5. Kinetic parameters were analyzed and calculated in the BIAevaluation program package v4.1 using a flow cell without captured antibody as a reference.

[4] = molecular target: T2, recombinant human IL4; test: as above; remark: listed apart in the source
Protocol: as §1

T1 sequence (P35225 35-146 limits assumed): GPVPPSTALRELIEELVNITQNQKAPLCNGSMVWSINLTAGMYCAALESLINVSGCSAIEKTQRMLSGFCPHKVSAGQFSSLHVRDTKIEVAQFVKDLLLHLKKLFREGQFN

Kd [1]: 0.0818 nM
B1: parental anti-IL13 mAb (antibody, V domains shown)
VH: EVQLKESGPGLVAPGGSLSITCTVSGFSLTDSSINWVRQPPGKGLEWLGMIWGDGRIDYADALKSRLSISKDSSKSQVFLEMTSLRTDDTATYYCARDGYFPYAMDFWGQGTSVTVSS
VL: DIVLTQSPASLAVSLGQRATISCRASESVDSYGQSYMHWYQQKAGQPPKLLIYLASNLESGVPARFSGSGSRTDFTLTIDPVQAEDAATYYCQQNAEDSRTFGGGTKLEIK
notes: also called parental humanized anti-IL13; BB13

IC50 Cellular Assay IL4 [nM] (HEK-Blue IL-4/IL-13 reporter cells, SEAP) [2]: 0.045 nM | Kd [3]: 0.003 nM | Kd [4]: 0.003 nM
B2: CODV-Ig Batch ID 204 (IL4 × IL13 on HC; L1=7, L2=5, L3=1, L4=2) (bispecific antibody)
heavy: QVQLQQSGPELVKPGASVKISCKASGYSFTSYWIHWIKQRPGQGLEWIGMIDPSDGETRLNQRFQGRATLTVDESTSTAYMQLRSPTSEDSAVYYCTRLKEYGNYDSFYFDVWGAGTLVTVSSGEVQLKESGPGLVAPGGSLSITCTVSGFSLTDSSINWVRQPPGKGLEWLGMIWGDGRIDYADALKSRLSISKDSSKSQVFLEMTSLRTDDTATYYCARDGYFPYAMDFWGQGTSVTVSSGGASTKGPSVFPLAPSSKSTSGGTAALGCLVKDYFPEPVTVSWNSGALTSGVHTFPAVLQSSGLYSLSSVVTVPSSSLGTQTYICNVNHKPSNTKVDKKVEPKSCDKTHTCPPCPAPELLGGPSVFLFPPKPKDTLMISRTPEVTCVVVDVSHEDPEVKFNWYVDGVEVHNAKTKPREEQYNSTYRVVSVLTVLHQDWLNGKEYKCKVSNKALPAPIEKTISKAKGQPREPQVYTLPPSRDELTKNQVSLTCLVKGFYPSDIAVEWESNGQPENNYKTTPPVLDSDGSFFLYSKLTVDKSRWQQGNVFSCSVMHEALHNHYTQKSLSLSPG
light: DIVLTQSPASLAVSLGQRATISCRASESVDSYGQSYMHWYQQKAGQPPKLLIYLASNLESGVPARFSGSGSRTDFTLTIDPVQAEDAATYYCQQNAEDSRTFGGGTKLEIKGGGGGGGDIQMTQSPASLSVSVGDTITLTCHASQNIDVWLSWFQQKPGNIPKLLIYKASNLHTGVPSRFSGSGSGTGFTLTISSLQPEDIATYYCQQAHSYPFTFGGGTKLEIKGGGGGRTVAAPSVFIFPPSDEQLKSGTASVVCLLNNFYPREAKVQWKVDNALQSGNSQESVTEQDSKDSTYSLSSTLTLSKADYEKHKVYACEVTHQGLSSPVTKSFNRGEC
notes: 704 prints 'IL13 × IL4' and format 'CODV'; also called 801; 704
